For the assay, the target named is human NPY2 receptor on HEK293/hNPY2R cells (human) (UniProt P49146). Description: cell-based or functional assay.

On to PYY(3-36) (peptide), for which the IC50 value of the cAMP assay (inhibition of Forskolin stimulated cAMP accumulation in HEK293/hNPY2R cells) came out at 0.012 nM.

Values taken from patent publication US20130280279A1, “PHARMACEUTICAL COMPOSITION OF A COMPLEX OF AN ANTI-DIG ANTIBODY AND DIGOXIGENIN THAT IS CONJUGATED TO A PEPTIDE” (HOFFMANN-LA ROCHE INC., priority 2011, published 2013).
